In PMC9454918:

Target: recombinant goose FST protein (148-amino-acid peptide of goose follistatin, residues 93-240) (goose)
Test: SDS-PAGE and Western blot; purified recombinant protein on an SDS-PAGE gel stained with Coomassie blue; Western blot with an anti-His tag antibody

Question: Which stoichiometry N does the source give for “recombinant goose FST protein (148-amino-acid peptide of goose follistatin, residues 93-240) (domain or fragment)” here?
Answer: The stoichiometry N was 2.
